Test results published in PMC4548243, “Nuclear Localization of the DNA Repair Scaffold XRCC1: Uncovering the Functional Role of a Bipartite NLS” (Scientific Reports, 2015).
No end group written: not given here. *: point of attachment. FITC = O=C1OC2(c3ccc(O)cc3Oc3cc(O)ccc32)c2ccc(NC(=S)*)cc21

Assays:
Conditions in all cases: both partners purified
[1] = biological target: T1, murine Importin α with the Importin β binding domain (IBB) deleted, Impα(70–529) (murine, UniProt P52293 70-529); assay: fluorescence polarisation; direct titration: serial dilutions of Impα into 100 nM FITC-labeled peptide; FP buffer (20 mM Tris pH 7.7, 125 mM NaCl, 1 mM EDTA, 2 mM TCEP, 5% sucrose, 10 mM NaN3); room temperature (legend: 25 °C); apparent dissociation constants, single-site fit
[2] = biological target: Impα(70–529)(W184R/W231R) (murine, UniProt P52293 70-529, W184R | W231R); assay: as above
[3] = biological target: T1, murine Importin α with the Importin β …; assay: fluorescence polarisation; competition: serial dilutions of unlabeled peptide into 150 nM Impα(70–529) and 100 nM FITC-labeled FL-NLS peptide in FP buffer; fit to a competitive binding equation; apparent

Kd [1]	Kd [2]	Kd [3]	Binder
108 nM	7400 nM	–	{FITC}-SPKGKRKLDLNQEEKKTPSKPPAQLSPSVPKRPKLP (human XRCC1 residues 241-276, the bipartite NLS; also called Full XRCC1 NLS ligand; FITC-labeled bipartite XRCC1 NLS; source: synthetic peptide, bought: Genscript) [FL-NLS: FITC-XRCC1 (241–276)]
2100 nM	690000 nM	–	SVPKRPKLPGK(FITC) (added G-Lys that carries the FITC label; also called major motif ligand; major motif peptide; source: synthetic peptide, bought: Genscript) [M2: XRCC1 (268-276)-G-Lys-FITC]
–	–	604 nM	SPKGKRKLDLNQEEKKEPEKPPAQLEPEVPKRPKLP (human XRCC1 residues 241-276 with four glutamate substitutions that mimic phosphorylation; also called NLS(T257E/S259E/S266E/S268E)) [NLS-E4: XRCC1(241–276)/(T257E/S259E/S266E/S268E) quadruple variant]
